Source: the Human Domainome abundance scans (Beltran et al. 2025)
± gives the uncertainty stated by the source.

B1: POU domain, class 4, transcription factor 3, residues 185 to 256; numbered along this chain, Q15319 (parent)
chain: RELEAFAERFKQRRIKLGVTQADVGAALANLKIPGVGSLSQSTICRFESLTLSHNNMIALKPVLQAWLEEAE

Variants of: B1
Experiment: abundance fitness (aPCA) (normalised: wild type 0, dead -1); higher = more abundant; growth selection in yeast, the domain comes from the species named
Conditions: Homo sapiens

| Variant | abundance fitness |
| --- | --- |
| RELEAFAERFKQRRIKLGVTQADVGAALANLKIPGVGSLSQSTICRFESLTLSHNNMIALKPVEQAWLEEAE [L64E] | -0.788 ± 0.049 |
| RELEAFAERFKQRRIKLGVTQADVGAALANLKIPGVGSLSQSTICRFESLTLSHNNMIALKPVIQAWLEEAE [L64I] | -0.402 ± 0.098 |
| RELEAFAERFKQRRIKLGVTQADVGAALANLKIPGVGSLSQSTICRFESLTLSHNNMIALKPVYQAWLEEAE [L64Y] | -0.322 ± 0.069 |
| RELEAFAERFKQRRIKLGVTQADVGAALANLKIPGVGSLSQSTICRFESLTLSHNNMIALKPVNQAWLEEAE [L64N] | -0.758 ± 0.11 |
| RELEAFAERFKQRRIKLGVTQADVGAALANLKIPGVGSLSQSTICRFESLTLSHNNMIALKPVCQAWLEEAE [L64C] | -0.717 ± 0.084 |
| RELEAFAERFKQRRIKLGVTQADVGAALANLKIPGVGSLSQSTICRFESLTLSHNNMIALKPVVQAWLEEAE [L64V] | -0.425 ± 0.024 |
| RELEAFAERFKQRRIKLGVTQADVGAALANLKIPGVGSLSQSTICRFESLTLSHNNMIALKPVFQAWLEEAE [L64F] | -0.412 ± 0.06 |
| RELEAFAERFKQRRIKLGVTQADVGAALANLKIPGVGSLSQSTICRFESLTLSHNNMIALKPVMQAWLEEAE [L64M] | -0.17 ± 0.034 |
| RELEAFAERFKQRRIKLGVTQADVGAALANLKIPGVGSLSQSTICRFESLTLSHNNMIALKPVGQAWLEEAE [L64G] | -0.836 ± 0.037 |
| RELEAFAERFKQRRIKLGVTQADVGAALANLKIPGVGSLSQSTICRFESLTLSHNNMIALKPVSQAWLEEAE [L64S] | -0.768 ± 0.076 |
| RELEAFAERFKQRRIKLGVTQADVGAALANLKIPGVGSLSQSTICRFESLTLSHNNMIALKPVDQAWLEEAE [L64D] | -0.737 ± 0.084 |
| RELEAFAERFKQRRIKLGVTQADVGAALANLKIPGVGSLSQSTICRFESLTLSHNNMIALKPVRQAWLEEAE [L64R] | -0.818 ± 0.055 |
| RELEAFAERFKQRRIKLGVTQADVGAALANLKIPGVGSLSQSTICRFESLTLSHNNMIALKPVKQAWLEEAE [L64K] | -0.678 ± 0.066 |
| RELEAFAERFKQRRIKLGVTQADVGAALANLKIPGVGSLSQSTICRFESLTLSHNNMIALKPVLKAWLEEAE [Q65K] | -0.011 ± 0.41 |
| RELEAFAERFKQRRIKLGVTQADVGAALANLKIPGVGSLSQSTICRFESLTLSHNNMIALKPVLHAWLEEAE [Q65H] | -0.076 ± 0.2 |
| RELEAFAERFKQRRIKLGVTQADVGAALANLKIPGVGSLSQSTICRFESLTLSHNNMIALKPVLGAWLEEAE [Q65G] | 0.011 ± 0.14 |
| RELEAFAERFKQRRIKLGVTQADVGAALANLKIPGVGSLSQSTICRFESLTLSHNNMIALKPVLDAWLEEAE [Q65D] | -0.065 ± 0.15 |
| RELEAFAERFKQRRIKLGVTQADVGAALANLKIPGVGSLSQSTICRFESLTLSHNNMIALKPVLCAWLEEAE [Q65C] | -0.1 ± 0.21 |
| RELEAFAERFKQRRIKLGVTQADVGAALANLKIPGVGSLSQSTICRFESLTLSHNNMIALKPSLQAWLEEAE [V63S] | -0.162 ± 0.12 |

| Variant | abundance fitness |
| --- | --- |
| RELEAFAERFKQRRIKLGVTQADVGAALANLKIPGVGSLSQSTICRFESLTLSHNNMIALKPWLQAWLEEAE [V63W] | -0.022 ± 0.094 |
| RELEAFAERFKQRRIKLGVTQADVGAALANLKIPGVGSLSQSTICRFESLTLSHNNMIALKPRLQAWLEEAE [V63R] | -0.157 ± 0.049 |
| RELEAFAERFKQRRIKLGVTQADVGAALANLKIPGVGSLSQSTICRFESLTLSHNNMIALKPHLQAWLEEAE [V63H] | 0.019 ± 0.14 |
| RELEAFAERFKQRRIKLGVTQADVGAALANLKIPGVGSLSQSTICRFESLTLSHNNMIALKPTLQAWLEEAE [V63T] | -0.254 ± 0.11 |
| RELEAFAERFKQRRIKLGVTQADVGAALANLKIPGVGSLSQSTICRFESLTLSHNNMIALKPQLQAWLEEAE [V63Q] | -0.34 ± 0.094 |
| RELEAFAERFKQRRIKLGVTQADVGAALANLKIPGVGSLSQSTICRFESLTLSHNNMIALKPDLQAWLEEAE [V63D] | -0.585 ± 0.27 |
| RELEAFAERFKQRRIKLGVTQADVGAALANLKIPGVGSLSQSTICRFESLTLSHNNMIALKPFLQAWLEEAE [V63F] | -0.181 ± 0.15 |
| RELEAFAERFKQRRIKLGVTQADVGAALANLKIPGVGSLSQSTICRFESLTLSHNNMIALKPALQAWLEEAE [V63A] | -0.135 ± 0.095 |
| RELEAFAERFKQRRIKLGVTQADVGAALANLKIPGVGSLSQSTICRFESLTLSHNNMIALKPMLQAWLEEAE [V63M] | -0.085 ± 0.093 |
| RELEAFAERFKQRRIKLGVTQADVGAALANLKIPGVGSLSQSTICRFESLTLSHNNMIALKPKLQAWLEEAE [V63K] | -0.35 ± 0.34 |
| RELEAFAERFKQRRIKLGVTQADVGAALANLKIPGVGSLSQSTICRFESLTLSHNNMIALKPILQAWLEEAE [V63I] | 0.055 ± 0.051 |
| RELEAFAERFKQRRIKLGVTQADVGAALANLKIPGVGSLSQSTICRFESLTLSHNNMIALKPPLQAWLEEAE [V63P] | -0.161 ± 0.087 |
| RELEAFAERFKQRRIKLGVTQADVGAALANLKIPGVGSLSQSTICRFESLTLSHNNMIALKPGLQAWLEEAE [V63G] | -0.545 ± 0.06 |
| RELEAFAERFKQRRIKLGVTQADVGAALANLKIPGVGSLSQSTICRFESLTLSHNNMIALKWVLQAWLEEAE [P62W] | -0.689 ± 0.047 |
| RELEAFAERFKQRRIKLGVTQADVGAALANLKIPGVGSLSQSTICRFESLTLSHNNMIALKRVLQAWLEEAE [P62R] | -0.376 ± 0.036 |
| RELEAFAERFKQRRIKLGVTQADVGAALANLKIPGVGSLSQSTICRFESLTLSHNNMIALKSVLQAWLEEAE [P62S] | -0.188 ± 0.031 |
| RELEAFAERFKQRRIKLGVTQADVGAALANLKIPGVGSLSQSTICRFESLTLSHNNMIALKTVLQAWLEEAE [P62T] | -0.221 ± 0.042 |
| RELEAFAERFKQRRIKLGVTQADVGAALANLKIPGVGSLSQSTICRFESLTLSHNNMIALKQVLQAWLEEAE [P62Q] | -0.393 ± 0.049 |
| RELEAFAERFKQRRIKLGVTQADVGAALANLKIPGVGSLSQSTICRFESLTLSHNNMIALKVVLQAWLEEAE [P62V] | -0.378 ± 0.033 |
